Target: MICA antigen of Table 2 (purified 6×His-MICA*08 or 6×His-MICA*04) (UniProt Q29983)
Assay: BLI (Octet Red96), mAb captured on anti-mouse IgG Fc biosensors, His-tagged MICA in solution, 1:1 model

Kd	koff	kon	Binder
6.45 nM	0.000548 s⁻¹	93300 M⁻¹ s⁻¹	16F10.C12 (antibody, V domains shown) VH: EVQLQESGPGLVAPSQSLSITCTVSGFSLTAFGVNWVRQPPGKGLEWLGMIWGDGNTDYNSTLRSRLSISKDNSKSQVFLKLNSLQTDDTARYFCARETYYGNYAGLGYWGQGTLVTVSA VL: QIVLTQSPAIMSASIGERVTMTCTASSSVSSNYLHWYQQKPRSSPKLWIYTTSNLASGVPTRFSGSGSGTSYSLTISSMEAEDAATYYCHQFHRSPFTFGSGTKLEIK
1.18 nM	0.000421 s⁻¹	383000 M⁻¹ s⁻¹	3F9.E4 (antibody, V domains shown) VH: EVQLQESGEGLVKPGGSLKLSCAASGFTFSNYAMSWVRQTPEKRLEWVAYISPGGDYIYYADTVKGRFTISRDNARNTLYLQMSSLKSEDTAMYYCTTDRRHYGSYAMDYWGQGISVTVSS VL: DIVMTQAAPSVPVTPGESVSISCRSSKSLLHSNGNTYLYWFLQRPGQSPQLLIYRMSNLASGVPDRFSGSGSGTAFTLRISRVEAEDVGVYYCMQHLEYPFTFGSGTKLEIK
